Measurements: the supplement of paper PMC10567573

B1: HNF4A (parent)
chain: RFSRQCVVDKDKRNQCRYCRLKKC

Variants of: B1
Test: protein stability index of a GFP-peptide fusion (GPS, HEK-293T) (PSI 1-6); higher = more stable
Conditions: c terminus: a fixed tail appended
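Note: lentivirally expressed fusions sorted by FACS into six bins by GFP to DsRed ratio, PSI derived from sequencing read proportions per bin multiplied by bin number.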

Protein stability index, by site and new letter:
L21: G 2.94 | A 3.51 | C 3.73 | T 2.93 | M 3.61 | R 4.08 | V 2.31 | F 2.86 | P 2.94 | D 3.35 | Y 3.01 | Q 3.64 | S 3.36 | E 3.08 | W 2.94 | H 3.41 | I 3.22 | K 4.07 | N 3.33
Q15: V 2.52 | F 2.12 | Y 2.48 | A 2.47 | D 2.89 | T 2.68 | G 2.37 | K 2.85 | E 2.34 | C 2.8 | P 2.21 | I 2.33 | M 2.48 | R 2.73 | L 2.78 | H 1.96 | S 2.79
N14: K 2.23 | Y 3.62 | W 2.27 | F 2.16 | C 3.46 | D 2.24 | G 2.57 | T 2.31 | V 2.6 | A 1.5 | L 2.87 | M 1.98 | E 2.95 | P 2.72 | I 2.39 | H 3.45 | Q 2.18 | S 2.96
K22: G 2.27 | R 2.9 | I 1.73 | E 1.54 | V 1.83 | M 1.56 | H 1.71 | Q 1.79 | Y 1.98 | L 2.57 | A 2.08 | D 2.13 | C 2.66 | S 2.73 | F 1.8 | T 2.13 | P 2.12
D11: K 2.4 | R 2.65 | V 2.37 | A 2.28 | I 2.41 | T 2.32 | C 3.51 | N 2.4 | E 2.19 | F 2.63 | G 2.55 | Q 2.63 | S 2.04 | P 2.9 | L 2.21 | M 2.65 | H 2.97 | Y 2.45
R20: Y 2.28 | A 2.96 | F 2.12 | N 2.62 | S 2.72 | V 2.56 | K 2.58 | P 3.15 | H 1.58 | E 2.84 | D 3 | T 2.74 | W 1.43 | Q 2.98 | L 2.35 | G 3.23 | M 2.96 | I 2.42 | C 2.24
C24: H 2.77 | Q 2.5 | S 2.5 | A 3.01 | K 2.62 | E 1.01 | G 2.41 | R 2.42 | L 2.39 | F 2.55 | I 2.93 | N 2.89 | M 3.33
C19: A 3.07 | F 2.39 | L 3.07 | D 4.09 | W 2.46 | R 3.37 | P 3.13 | V 2.95 | G 3.04 | S 3.65 | I 2.03 | N 3.71 | Q 3.73 | T 2.99 | H 3.07 | M 3.08
Y18: A 2.2 | E 3.41 | S 3.69 | N 3.78 | C 3.61 | F 2.63 | M 3.13 | K 3.73 | Q 3.54 | L 2.19 | G 3.04 | I 3.54 | P 3 | R 3.36 | T 3.2 | H 3.64
C16: E 4.05 | H 3.9 | Y 3.48 | K 3.1 | I 2.93 | S 3.52 | R 4.33 | F 2.97 | Q 3.38 | L 2.92 | A 2.56 | N 3.31 | T 3.56 | G 2.61 | W 3.37 | P 3.58 | V 3.33
D9: G 3.04 | V 2.33 | H 3.9 | A 2.07 | M 3.42 | F 2.13 | C 2.69 | T 2.27 | I 2.12 | N 2.67 | P 2.48 | R 3.01 | W 1.68 | Q 2.78 | E 2.52 | L 1.92 | Y 2.33 | S 2.92 | K 2.13
R13: H 2.98 | I 2.38 | A 2.11 | F 2.56 | K 2.4 | M 3.02 | E 2.02 | P 1.84 | W 1.93 | D 3.2 | G 2.21 | C 3.06 | T 2.99 | L 2.22 | V 2.7 | Y 2.76 | N 3.03 | Q 2.83 | S 2.65
V7: W 2.47 | L 2.48 | A 2.4 | M 2.41 | P 2.96 | F 1.94 | S 2.1 | Q 2.05 | Y 2.93 | T 2.73 | R 2.4 | H 2.38 | I 2.13 | D 4.05 | E 2.05 | G 2.37 | C 2.62 | K 2.6 | N 2.21
K12: G 2.76 | Y 2.25 | H 2.93 | D 2.13 | S 2 | F 2.25 | I 2.54 | V 1.99 | W 2.28 | L 1.91 | C 2.07 | P 2.76 | N 2.41 | A 1.51 | T 2.85 | M 1.97 | Q 2.52
K10: G 2.55 | Q 2.95 | S 2.02 | C 2.25 | D 2.49 | Y 2.82 | M 2.9 | F 1.98 | I 1.75 | A 1.7 | R 2.78 | T 2.41 | H 2.79 | L 2.37 | P 2.8 | N 2.43 | W 2.59 | V 2.47 | E 2.14
R17: D 3.29 | V 2.21 | Y 2.21 | M 2.79 | S 2.4 | L 1.84 | C 2.29 | I 2.9 | Q 3.42 | N 3.45 | F 2.57 | E 3.78 | K 2.54 | T 2.69 | P 2.9 | A 2.77 | G 3.16 | H 2.83 | W 2.42
C6: K 3.17 | E 2.82 | L 1.99 | Y 2.32 | R 2.6 | T 2.29 | F 2.89 | V 2.62 | M 2 | N 2.86 | H 2.77 | S 2.72 | I 2.33 | P 2.72 | W 1.29 | G 2.87 | Q 3.36
K23: S 1.41 | E 2.04 | Y 2.24 | C 2.54 | G 2.15 | H 2.4 | P 1.74 | M 3.12 | L 1.34 | W 2.05 | T 2.37 | D 1.65 | Q 2.74 | F 2.67 | V 2.04 | N 1.77 | I 1.68 | A 1.89
V8: H 3.87 | F 2.38 | W 2.4 | T 2.6 | A 2 | I 2.9 | D 2.8 | P 2.38 | R 3.24 | E 2.19 | K 2.86 | C 3.21 | N 1.86 | Q 2.66 | Y 2.98 | S 2.48 | M 2.56
